Paper PMC2196230 (The Journal of Experimental Medicine, 1997)

Target: the molecule itself
Test: SEC

B1: recombinant soluble signaling lymphocytic activation molecule (sSLAM) with a Flag sequence at the carboxy terminus (natural protein, human, UniProt Q13291-3 21-305, looked up)
chain: ASYGTGGRMMNCPKILRQLGSKVLLPLTYERINKSMNKSIHIVVTMAKSLENSVENKIVSLDPSEAGPPRYLGDRYKFYLENLTLGIRESRKEDEGWYLMTLEKNVSVQRFCLQLRLYEQVSTPEIKVLNKTQENGTCTLILGCTVEKGDHVAYSWSEKAGTHPLNPANSSHLLSLTLGPQHADNIYICTVSNPISNNSQTFSPWPGCRTDPSGKTNHYQTTVEKKSLTIYAQVQKPGPLQKKLDSFPAQDPCTTIYVAATEPVPESVQETNSITVYASVTLPES
- stoichiometry N: 2
